Results from patent US20070286859A1 (published 2007).
Where two headings read alike, the source gives them in different places.

Key:
[1] = target: T1, extracellular region of human V158 FcγRIIIa with C-terminal 6xHis-tag and GST-tag (human, UniProt P08637 17-208); test: SPR, fold vs WT alemtuzumab
[2] = target: extracellular region of human F158 FcγRIIIa with C-terminal 6xHis-tag and GST-tag (human, UniProt P08637 17-208); test: SPR, receptor on chip
[3] = target: T1, extracellular region of human V158 …; test: SPR, receptor on chip
[4] = target: T1, extracellular region of human V158 …; test: AlphaScreen competition
[5] = target: T1, extracellular region of human V158 …; test: AlphaScreen competition; remark: listed apart in the source
[6] = target: T1, extracellular region of human V158 …; test: AlphaScreen competition; remark: listed apart in the source
[7] = target: T1, extracellular region of human V158 …; test: AlphaScreen competition, fold vs WT alemtuzumab

| Binder | Fold WT [1] | Kd [2] | Kd [3] | further results |
| --- | --- | --- | --- | --- |
| N297D/A330Y/I332E alemtuzumab (antibody) chain 1: QVQLQESGPGLVRPSQTLSLTCTVSGFTFTDFYMNWVRQPPGRGLEWIGFIRDKAKGYTTEYNPSVKGRVTMLVDTSKNQFSLRLSSVTAADTAVYYCAREGHTAAPFDYWGQGSLVTVSSASTKGPSVFPLAPSSKSTSGGTAALGCLVKDYFPEPVTVSWNSGALTSGVHTFPAVLQSSGLYSLSSVVTVPSSSLGTQTYICNVNHKPSNTKVDKKVEPKSCDKTHTCPPCPAPELLGGPSVFLFPPKPKDTLMISRTPEVTCVVVDVSHEDPEVKFNWYVDGVEVHNAKTKPREEQYDSTYRVVSVLTVLHQDWLNGKEYKCKVSNKALPYPEEKTISKAKGQPREPQVYTLPPSRDELTKNQVSLTCLVKGFYPSDIAVEWESNGQPENNYKTTPPVLDSDGSFFLYSKLTVDKSRWQQGNVFSCSVMHEALHNHYTQKSLSLSPGK chain 2: not shown |  |  |  | affinity as a fraction of glycosylated WT alemtuzumab [4]: 0.4 fold |
| S239D/N297D/I332E alemtuzumab (antibody) chain 1: QVQLQESGPGLVRPSQTLSLTCTVSGFTFTDFYMNWVRQPPGRGLEWIGFIRDKAKGYTTEYNPSVKGRVTMLVDTSKNQFSLRLSSVTAADTAVYYCAREGHTAAPFDYWGQGSLVTVSSASTKGPSVFPLAPSSKSTSGGTAALGCLVKDYFPEPVTVSWNSGALTSGVHTFPAVLQSSGLYSLSSVVTVPSSSLGTQTYICNVNHKPSNTKVDKKVEPKSCDKTHTCPPCPAPELLGGPDVFLFPPKPKDTLMISRTPEVTCVVVDVSHEDPEVKFNWYVDGVEVHNAKTKPREEQYDSTYRVVSVLTVLHQDWLNGKEYKCKVSNKALPAPEEKTISKAKGQPREPQVYTLPPSRDELTKNQVSLTCLVKGFYPSDIAVEWESNGQPENNYKTTPPVLDSDGSFFLYSKLTVDKSRWQQGNVFSCSVMHEALHNHYTQKSLSLSPGK chain 2: not shown |  |  |  | affinity as a fraction of glycosylated WT alemtuzumab [4]: 0.8 fold |
| V264I/I332E alemtuzumab (antibody) chain 1: not shown chain 2: not shown |  | 52 nM | 17 nM | IC50 [5]: 0.5 nM |
| V264I alemtuzumab (antibody) chain 1: not shown chain 2: not shown |  |  | 64 nM |  |
| E283H alemtuzumab (antibody) chain 1: not shown chain 2: not shown | 2.31 fold |  |  |  |
| E272R alemtuzumab (antibody) chain 1: not shown chain 2: not shown | 1.38 fold |  |  |  |
| S239D alemtuzumab (antibody) chain 1: not shown chain 2: not shown |  |  |  | IC50 [6]: 0.8 nM |
| T260H alemtuzumab (antibody) chain 1: not shown chain 2: not shown | 1.86 fold |  |  | Fold WT [7]: 1 fold |
| V284E alemtuzumab (antibody) chain 1: not shown chain 2: not shown | 1.51 fold |  |  |  |

Now from value to binder, other results behind:

| Fold WT [1] | Kd [2] | Kd [3] | Binder | further results |
| --- | --- | --- | --- | --- |
| 12.8 fold |  |  | S304T alemtuzumab (antibody) chain 1: not shown chain 2: not shown |  |
|  | 72 nM | 31 nM | I332E alemtuzumab (antibody) chain 1: not shown chain 2: not shown |  |
|  | 156 nM | 39 nM | S298A/E333A/K334A alemtuzumab (antibody) chain 1: QVQLQESGPGLVRPSQTLSLTCTVSGFTFTDFYMNWVRQPPGRGLEWIGFIRDKAKGYTTEYNPSVKGRVTMLVDTSKNQFSLRLSSVTAADTAVYYCAREGHTAAPFDYWGQGSLVTVSSASTKGPSVFPLAPSSKSTSGGTAALGCLVKDYFPEPVTVSWNSGALTSGVHTFPAVLQSSGLYSLSSVVTVPSSSLGTQTYICNVNHKPSNTKVDKKVEPKSCDKTHTCPPCPAPELLGGPSVFLFPPKPKDTLMISRTPEVTCVVVDVSHEDPEVKFNWYVDGVEVHNAKTKPREEQYNATYRVVSVLTVLHQDWLNGKEYKCKVSNKALPAPIAATISKAKGQPREPQVYTLPPSRDELTKNQVSLTCLVKGFYPSDIAVEWESNGQPENNYKTTPPVLDSDGSFFLYSKLTVDKSRWQQGNVFSCSVMHEALHNHYTQKSLSLSPGK chain 2: not shown |  |
|  | 285 nM | 52 nM | S298A alemtuzumab (antibody) chain 1: not shown chain 2: not shown |  |
|  | 730 nM | 68 nM | WT alemtuzumab (antibody) chain 1: not shown chain 2: not shown |  |
